The target in this test is T1, human ALK7-Fc comprising protein (human, UniProt Q8NER5 22-113, limits assumed).
T1 construct: The wording 'ALK7-Fc comprising protein' leaves open whether further chains are present; also called human ALK7-Fe comprising protein; not shown: Fc portion
T1 sequence: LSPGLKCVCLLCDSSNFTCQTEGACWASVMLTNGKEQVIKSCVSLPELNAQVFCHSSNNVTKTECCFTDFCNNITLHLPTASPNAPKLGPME
The test is described as follows: SPR (Biacore T100/T200); antibody captured on FAB chip, ALK7-Fc comprising protein as analyte; 1:1 fit. As for the experimental part: Experiments were performed using a Biacore T100/T200 biosensor (Biacore/GE Healthcare) at 25 and 37° C. ALK7 antibodies were captured on custom made FAB chip. A concentration series of ALK7-Fc comprising protein was injected over the flow cells at a flow rate of […]. To obtain kinetic rate constants the corrected data were fit to a 1:1 interaction model using BiaEvaluation software (GE Healthcare). The equilibrium binding constant KD was determined by the ratio of binding rate constants kd/ka.
For orientation: SPR reads the build-up and loss of mass on a sensor chip optically.

B1: L01 (antibody, V domains shown)
VH: QVQLVQSGAEVKKPGSSVKVSCKASGGTFSSYAISWVRQAPGQGLEWMGSIIPIFGTANYAQKFQGRVTITADESTSTAYMELSSLRSEDTAVYYCARDPVGARYEVFDYWGQGTLVTVSS
VL: EIVMTQSPATLSVSPGERATLSCRASQSVSSNLAWYQQKPGQAPRLLIYSASTRATGIPARFSGSGSGTEFTLTISSLQSEDFAVYYCQQANTFPLTFGGGTKVEIK
notes: Human IgG from yeast libraries; also called LOL
The molecule B1 returned a koff of 0.000367 s⁻¹.

A word on the koff: it is the rate constant with which the complex falls apart. The low end stands for slow dissociation, the high end for fast dissociation.

Values taken from US20210324089A1 (ACCELERON PHARMA, published 2021).
